The text below walks through data of a protein production outcome set (Wang et al. 2014).

The series is described as follows: label from the status in PepcDB records.
Turning to “MTSAREAFDLYRAGRTAEAAALCERLVAAAPSVEAWHLLGVARLELGAAQAALTALDAGLALDPVRPGLLSARTLALTSLHRDDEAVVAARAALAVDPDNPPVFNALAVSLQRLGGFSEALAAIDHAVAAAPREAAYRAHRAALLVLLNRPAEAARDLEAVLEVNPSHPRVAGDLMWARRQTCDWREDAALDMLVKADLKLGRAGVAPFAALALFDLPVLHRRCATLSAPPSVPAPVWPVRRPGERLRVAYLSSDLHEHATARLLAGVLEAHDRSRFEIFAVSYGPETGGAMQERLRAACEHWIEARRLSDAEIALKCRQQGVDIAVDLKGYTQDGRPGILAHRAAPLQVSWLGYPGTLGAHADVVLADAVTLPPGAETNWSEAVVRLPCYQPNDGLTSVIPAPSRADMGLPERVRVFCCFNNPAKITPEVFATWMAILRAAPDSVLWLYAGAPGAADNLRGHARAAGVAPERLVFAEPAPHEAHLARHVLADLVLDTWPYGAHTTASDALRMGVPVLTLPGESFASRVGASLATAIGMTELIATSRADYVAKALAMAADGALKPRVAEAVRRSNLFDPVAFARSLETVYAGLVRR”, the protein production result is on record as “failed”.

Consider “MTSFDRPFEAARPDGENPSAHETLAEGGRLRPEATYTIPARQGRAIRMAQGEALMVINRDGSQIGDFWAFVEGDCGEYLSMEHLRPTLRRVSPRPGDVLVSNRRRPILTLLEDSSPGVHDTLVASCDVHRYAQLGHEGYHDNCTDNLRMALGALGLRPTTVPCPLNLWMNTPVVEGGAMEWRPPVSRRGDHVLFRAELDVVVVISCCPMDLLPINGEEAQPRALDVRLRPRPA”, for which the protein production entry was “not failed”.

For “MTSFVGTRGRGNCGTAPGRSPSLQAHGKMGRRREPGVPEESCCSHDACCEKAAKPRVEEVATSGCADCCSAGVPVFDGLDPRYKRILWTVIAINAAMFVSEMVAGHLAGSQALKADALDFLADTVTYGLSLSVIGASLKTRATAALFKGVSLSAMAAWVFGSTVYQTLILGLPRAELMGAMSLAALAANLTSVLLLARYKDGDANVRSVWLCSRNDAVGNVIVMIAAVGVFGTGTAWPDLAVAAVMAGIFLTSSLQILRQAWAEYRGGQAAATA”, the protein production entry was “failed”. As for “MTSGIDLQNSFLQSLQGFGLPPGLAKLFWIPLPSILMIIGATVGVLVVVWLERKISAAAQQRIGPEYAGPLGVLQPVADGIKLVFKEDVVPAKADPWLFTLGPVLVVLPVFLSYLIVPFGQNLVITDINVGIFLWIALSSIAPIGLLMSGYASNNKYSLLGGLRAAAQSISYEIPLSLAVLAIVMMSNSLSTIDIVDQQSGYGILGWNIWRQPVGFLIFWIAALAECERLPFDLPEAEEELVAGYQTEYAGMKFALFYLGSYVNLVLSALVFSVLYLGGWDFPIPLENVANWLGVAPTTSWLQVLMAALGITMTVLKSYFLIFIAILLRWTVPRVRIDQLLNLGWKFLLPVALANLLITAALKLTFPMAFGG”, the protein production entry is listed as “failed”. For “MTSLRRRCIRQVPNTLTVGRFALVPVAAGFIWTGDLRAAFWVFVAAGITDALDGWLARVLDARTALGATLDPLADKALLVATFFTLALTGAIPLWLLGLVALRDALILAGFAWLRLRAGRPIRVTPNILGKANTLAQILLCAAVIGASAFTLDLSAVIAVLTPVVAATTIISGIAYLRMWLRRGWDGQQAHDRIERTRRNNQQRDDR”, the protein production result is “failed”.

Regarding “MTSPKHPPIRRDWLSKILAGTLLGFTLALGCSGLLVLALPQLPLPVKAQLAMWVVMPLWLGVLSGCFAFRDGRRAWLWLGGATALVLDLLVVARLS”, the protein production result was “failed”. As for “MTSPVQATPEPQPGLVARLSAEALGSMFVVVAAVGVGIFSNPGAAPLPAALATGLTVTAAMLAFGYVSGGHFNPAITLGNLIAGRIRAVAAVAYVAAQIIGSVVGAALMYFVVTTVPVLTDARAAFDVVAPGFGDHASAQTQMAGVLLVEVLGSALLVAVFLGATAGRRALPAMAPFAVGLAMAVLLQLGQVLGNLPFNPARATAQAFFSSPWAIEGLWLFWVAPLMGAALAGLAFRGFQGLSQAAVADTDHFHGGTDGINDAFDADDEPAEDSEVKEEAAAKADIAPSRAVPTVPVTDDARDFFDGKKGK”, the entry is “failed”; as for “MTSQGRAAMVRRMHDPQQPIRWRDLDLDPTHWVREILRVLGLALSRLWGRDVMLYVGGVSFFALLAVFPGLAILIGLYSLFLTPETAAWQAVKLAELIPSGARSIVQDELSRLAHAPGQTISLQSGVVLIVGAYAAHRGFKALLAGLSFIHDEENQRGFLGFNLMALLVLMAAFGLLFIMSGIFLTLRLLGTALELRPLAGVSWIQSEWTWASFGIVVGMSLVYRYAMSRQIVGWRASIAGGVAAAALCVFMSWASAFYVEKVVHLGATYGSVSAVIIFLIWLSWSVNAIFFGGALATEVEIALDERPRALLEGPRPIALKAPSESES”, “failed”.

In the case of “MTSREDEIRDFLATHGYADWNRTPLAGDASSRRYQRLRSPTGAKAVLMDWSPEEGGDTQPFVDLAQYLRNLDISAPEIYAEEHARGLLLIEDLGDALFTEVINNDPAQEMPLYRAAVDLLIHLHDAQTPELARLDPETLSEMTRLAFSEYRYAILGDAAEDNRKRFEHRFAQILSAQLEGDMVFVHRDFHAQNLLWLPEREGLARVGVIDFQDAKLGHRAYDLVSLLQDARRDVPAQVEAQMIDHYIQATGVDESHFRSAYAVIAVQRNMRILGIFARLSQRFGKRHYIEFVPRVWAHFERGLAHPALASAAEEILNALPAPAPEVLERLRA”, the protein production result is listed as “not failed”. As for “MTSRFMLIFAAISGFIFVALGAFGAHVLSKTMGGVEMGWIQTGLEYQAFHTLAILGLAVAMQRRISIWFYWSSVFLALGTVLFSGSLYCLALSHLRLWAFVTPVGGVSFLAGWALMLVGAIRLKRKGVSHE”, the entry is “failed”.

Consider “MTSSLQPDASRDAQREQVIAQLQQVIQRVPEQSEFTNTRRYQLLGPLFTLISLGMLAWGIQQGKTGMLLCGLFLSALFALVTWQHRHAGQHAFMRLTRRQLFVDSLSAPVNLTDVVDVHVKDEGLLTLQQLTLRPGSPLPTHRPVRQVFGNQAMALKSPEPHIRIHSAGLMSGGRKLAIDDIAALLDAYCQAANAQQQLDELQGRG”, for which the protein production result is listed as “failed”. As for “MTSSPELARAVAATLARHVTDVVICPGSRNSPLSLELIARDDIRVHTRIDERSAAFLALGLARSSKRHVAVVTTSGTAVANCAPAMIEAAYSHTPLIMVSADRPERLHGTGANQTIEQRGIFNVVDTDHVVDITDLNSISFARNVIHINVALDVPLVDVLPEVGDPVERVREVIEV”, the entry is “failed”; as for “MTSSTETTATTPQVAVNDIGNEEAFLAAIDETIKYFNDGDIVDGVIVKVDRDEVLLDIGYKTEGVIPSRELSIKHDVDPNEVVAVGDEIEALVLQKEDKEGRLILSKKRAQYERAWGTIEKIKEEDGIVTGTVIEVVKGGLILDIGLRGFLPASLVEMRRVRDLQPYVGKELEAKIIELDKNRNNVVLSRRAWLEQTQSEVRQTFLTTLQKGQVRSGVVSSIVNFGAFVDLGGVDGLVHVSELSWKHIDHPSEVVEVGQEVTVEVLDVDMDRERVSLSLKATQEDPWQQFARTHQIGQVVPGKVTKLVPFGAFVRVDEGIEGLVHISELAERHVEIPEQVVQVNDEIFVKVIDIDLERRRISLSLKQANEAFGADPSTVEFDPTLYGMAASYDDQGNYIYPEGFDPETNDWLEGYETQREAWETQYAEAQTRFEQHQAQVIKSREADEKAAAEGVDTAGAAPAASGGGGGGSYSSEGGDNSGALASDEALAALREKLAGGQS”, “failed”; as for “MTSTFNPRECKLSKQEGQNYGFFLRIEKDTEGHLVRVVEKCSPAEKAGLQDGDRVLRINGVFVDKEEHMQVVDLVRKSGNSVTLLVLDGDSYEKAVKTRVDLKELGQSQKEQGLSDNILSPVMNGGVQTWTQPRLCYLVKEGGSYGFSLKTVQGKKGVYMTDITPQGVAMRAGVLADDHLIEVNGENVEDASHEEVVEKVKKSGSRVMFLLVDKETDKRHVEQKIQFKRETASLKLLPHQPRIVEMKKGSNGYGFYLRAGSEQKGQIIKDIDSGSPAEEAGLKNNDLVVAVNGESVETLDHDSVVEMIRKGGDQTSLLVVDKETDNMYRLAHFSPFLYYQSQELPNGSVKEAPAPTPTSLEVSSPPDTTEEVDHKPKLCRLAKGENGYGFHLNAIRGLPGSFIKEVQKGGPADLAGLEDEDVIIEVNGVNVLDEPYEKVVDRIQSSGKNVTLLVCGKKAYDYFQAKKIPIVSSLADPLDTPPDSKEGIVVESNHDSHMAKERAHSTASHSSSNSEDTEM”, “failed”. As for “MTSTVEFINRWQRIALLSQSLLELAQRGEWDLLLQQEVSYLQRIETVMEKQTPPGITRSIQDMVAGYIKQTLDNEQLLKGLLQQRLDELSSLIGQSTRQKSLNNAYGRLSGMLLVPDASGAS”, the entry is “failed”; as for “MTSYIILKHLHMTTAYLTITLFALRLLLDAVGRPGWRQTPLRFIPHINDTILLVAAIALVFVAGYASAMPGWLITKIVLLFGYIIAGVFALKTTVGKPARIVAAVLALVQVSAIFHLAMAKPF”, “failed”; as for “MTTAKRDTYTPETLLSVAVQVFIERGYDGTSMEHLSKAAGISKSSIYHHVTGKEELLRRAVSRALDELFGILDEEHARVGTAAERLEYVVRRMVEVLMAELPYVTLLLRVRGNTGTERWALERRREFDHRVAALLKDAAAEGDVRADVEVRLATRLVFGMINSIVEWYRPEGPDGRSDASGASGVSGAGEREVVDAVARLVFGGLRKAS”, “not failed”. As for “MTTEPAQALSPLGVLPPAGPTCVHLPLNVTPQELARYAVGLANARGGTVMVGVDVVGQEHAERDAGELHPLMITHAIFELSGGRLTVNVQHHRVPGGARVLTVFVPQAPYVLAAPDGAVMAWDGAHLVPVLPGEGEPVADRDYTAVVPPDASLADLDPAEVARLRLLGRRIDAANLPDLDFLQELGLLVPSGGALRPTLAAILLAGTDAALRAHLPQAEVCYFHHQANDVEFQFREDLRRPIPSLLLRLSELIQARNRFTPVQVGLFRVEVWDHDESVYREALLNALTHRDYTLRDVVHVHHYPDRLEIMNPGGFPGGITPGNILRHQPKRRNPLLAGVLARLGLVEQAGVGVDKMFSLMLRHGKEPPEYVNYPDAVTLTLHGSAFDSDFVRFVARKQEELPQLSLDMLIVLSLLSREGEAPRAQLARALQLPEDRTPRLLRQMEDLALITRAGIGRGIAYHLAPDVAAALGQEKQRGLSALPGLPEPAERPTLLAPPAAVAPAPAPAAPRRVSEPAPTSHAGPSPSETRAIALALARERGRVRNADLREVCGLTNQQAWRALRSLVNAGLLRRLGSGTRDAYYELGEGAGRREEG”, the entry is “failed”; as for “MTTFTGHLTDAQAQRLVDGTLLEAEADEVLAHAGDCAECQALTESYRVLGDALGEALGALEVPELPRDFTAGVLSRIDARERAVRRERRFAAAILAAVLVAIGVTVVVAGAGTWAPAASRLAGGLGSAGEVLRLGAGLAGTLLSALRFPLALACTALAVPLLFALSRLIPSARAELA”, “failed”; as for “MTTHHETYTAPPFGPALMLNAFAPSRGWNPKDGFPDFSFIWRGYQISPAALATLQRAAGRDDAATADRLILLAPHVTGFRLTMALLMCRDWPLPIWRALQLRNRLIRSGDIKLDAASDLIVRAIGWRVHDKGIELDVLAQLMQGGDCPWQSITTFYYRGRFDGPASHGADDGAPMASPPIDPSLPPMTQWTVDGGERLRWAALTGDYNPLHLVDIYARATGFAAASAHPQRIAAQCLGHLAPTPEHPTQLDLWLKGPVYFGRSASLREASNDDGTTFGLWIDGDDRPAMVGVMR”, “failed”. Regarding “MTTHQVKKSEAKRQHILDSGFHLVLRKGFVGVGLQEILKTSGVPKGSFYHYFESKEAFGCELLKHYISDYQIRLNQLWTTETSARDKLMNYLQCWVKDPATEQSWAESCLIVKMAAEVADLSEDMRLIMNDGVKRLIARMADLIRIGQQEGSIQTSVVPDVLAQVIYQMYLGAALLSKLYKHKAPLFQALESTKMMLDGCNHVQQDKNQ”, the protein production entry is “not failed”.
